To fix the notation:
B1: Pistol ribozyme (parent)
chain: GGGUCGUUGUUCCAUAAUCGCGUGGAUAUGGCACGCAAGUUUCUACCGGGCACCGUAAAUGUCCGACUGGAGCCGUUCGGGCGGCUAUAAACAGACCUCAGGCCCGAAGCGUGGCGGCACCUGCCGCCGGUGGUAAAAAAGAUCGGAAGAGCACACGUCU

In the data set the parent is B1. The data set is described as follows: aptazyme ON/OFF ratio, guanine; higher = stronger switching; co-transcriptional cleavage with and without guanine.
As for GGGUCGUUCGAAAAUAAUCGCGUGGAUAUGGCACGCAAGUUUCUACCGGGCACCGUAAAUGUCCGACUGGAGCCGUUCGGGCGGCUAUAAACAGACCUCAGGCCCGAAGCGUGGCGGCACCUGCCGCCGGUGGUAAAAAAGAUCGGAAGAGCACACGUCU [G9C U10G U11A C12A C13A], the “aptazyme ON/OFF ratio” value was determined as 1.23. To GGGUCGUUCGAAUAUAAUCGCGUGGAUAUGGCACGCAAGUUUCUACCGGGCACCGUAAAUGUCCGACUGGAGCCGUUCGGGCGGCUAUAAACAGACCUCAGGCCCGAAGCGUGGCGGCACCUGCCGCCGGUGGUAAAAAAGAUCGGAAGAGCACACGUCU [G9C U10G U11A C12A C13U] belongs 1.52. Under GGGUCGUUCGAAGAUAAUCGCGUGGAUAUGGCACGCAAGUUUCUACCGGGCACCGUAAAUGUCCGACUGGAGCCGUUCGGGCGGCUAUAAACAGACCUCAGGCCCGAAGCGUGGCGGCACCUGCCGCCGGUGGUAAAAAAGAUCGGAAGAGCACACGUCU [G9C U10G U11A C12A C13G] stands 1.06; under GGGUCGUUCGAUAAUAAUCGCGUGGAUAUGGCACGCAAGUUUCUACCGGGCACCGUAAAUGUCCGACUGGAGCCGUUCGGGCGGCUAUAAACAGACCUCAGGCCCGAAGCGUGGCGGCACCUGCCGCCGGUGGUAAAAAAGAUCGGAAGAGCACACGUCU [G9C U10G U11A C12U C13A], 1.09; under GGGUCGUUCGAUUAUAAUCGCGUGGAUAUGGCACGCAAGUUUCUACCGGGCACCGUAAAUGUCCGACUGGAGCCGUUCGGGCGGCUAUAAACAGACCUCAGGCCCGAAGCGUGGCGGCACCUGCCGCCGGUGGUAAAAAAGAUCGGAAGAGCACACGUCU [G9C U10G U11A C12U C13U], 1.08. Under GGGUCGUUCGAUGAUAAUCGCGUGGAUAUGGCACGCAAGUUUCUACCGGGCACCGUAAAUGUCCGACUGGAGCCGUUCGGGCGGCUAUAAACAGACCUCAGGCCCGAAGCGUGGCGGCACCUGCCGCCGGUGGUAAAAAAGAUCGGAAGAGCACACGUCU [G9C U10G U11A C12U C13G] stands 1.09. For the variant GGGUCGUUCGCUCAUAAUCGCGUGGAUAUGGCACGCAAGUUUCUACCGGGCACCGUAAAUGUCCGACUGGAGCCGUUCGGGCGGCUAUAAACAGACCUCAGGCCCGAAGCGUGGCGGCACCUGCCGCCGGUGGUAAAAAAGAUCGGAAGAGCACACGUCU [G9C U10G U11C C12U], the “aptazyme ON/OFF ratio” value is 1.08. For GGGUCGUUCGCGCAUAAUCGCGUGGAUAUGGCACGCAAGUUUCUACCGGGCACCGUAAAUGUCCGACUGGAGCCGUUCGGGCGGCUAUAAACAGACCUCAGGCCCGAAGCGUGGCGGCACCUGCCGCCGGUGGUAAAAAAGAUCGGAAGAGCACACGUCU [G9C U10G U11C C12G], the “aptazyme ON/OFF ratio” value stood at 1.17. Under GGGUCGUUCGCACAUAAUCGCGUGGAUAUGGCACGCAAGUUUCUACCGGGCACCGUAAAUGUCCGACUGGAGCCGUUCGGGCGGCUAUAAACAGACCUCAGGCCCGAAGCGUGGCGGCACCUGCCGCCGGUGGUAAAAAAGAUCGGAAGAGCACACGUCU [G9C U10G U11C C12A] stands 1.37. To GGGUCGUUCGUCUAUAAUCGCGUGGAUAUGGCACGCAAGUUUCUACCGGGCACCGUAAAUGUCCGACUGGAGCCGUUCGGGCGGCUAUAAACAGACCUCAGGCCCGAAGCGUGGCGGCACCUGCCGCCGGUGGUAAAAAAGAUCGGAAGAGCACACGUCU [G9C U10G C13U] belongs 1.49.

GGGUCGUUCGUCGAUAAUCGCGUGGAUAUGGCACGCAAGUUUCUACCGGGCACCGUAAAUGUCCGACUGGAGCCGUUCGGGCGGCUAUAAACAGACCUCAGGCCCGAAGCGUGGCGGCACCUGCCGCCGGUGGUAAAAAAGAUCGGAAGAGCACACGUCU [G9C U10G C13G]: the “aptazyme ON/OFF ratio” value was determined as 1.1. To GGGUCGUUCGCGGAUAAUCGCGUGGAUAUGGCACGCAAGUUUCUACCGGGCACCGUAAAUGUCCGACUGGAGCCGUUCGGGCGGCUAUAAACAGACCUCAGGCCCGAAGCGUGGCGGCACCUGCCGCCGGUGGUAAAAAAGAUCGGAAGAGCACACGUCU [G9C U10G U11C C12G C13G] belongs 1.24. Under GGGUCGUUCGCGAAUAAUCGCGUGGAUAUGGCACGCAAGUUUCUACCGGGCACCGUAAAUGUCCGACUGGAGCCGUUCGGGCGGCUAUAAACAGACCUCAGGCCCGAAGCGUGGCGGCACCUGCCGCCGGUGGUAAAAAAGAUCGGAAGAGCACACGUCU [G9C U10G U11C C12G C13A] stands 1.17; under GGGUCGUUCGCGUAUAAUCGCGUGGAUAUGGCACGCAAGUUUCUACCGGGCACCGUAAAUGUCCGACUGGAGCCGUUCGGGCGGCUAUAAACAGACCUCAGGCCCGAAGCGUGGCGGCACCUGCCGCCGGUGGUAAAAAAGAUCGGAAGAGCACACGUCU [G9C U10G U11C C12G C13U], 1.15; under GGGUCGUUCGAACAUAAUCGCGUGGAUAUGGCACGCAAGUUUCUACCGGGCACCGUAAAUGUCCGACUGGAGCCGUUCGGGCGGCUAUAAACAGACCUCAGGCCCGAAGCGUGGCGGCACCUGCCGCCGGUGGUAAAAAAGAUCGGAAGAGCACACGUCU [G9C U10G U11A C12A], 1.31. To GGGUCGUUCGAGCAUAAUCGCGUGGAUAUGGCACGCAAGUUUCUACCGGGCACCGUAAAUGUCCGACUGGAGCCGUUCGGGCGGCUAUAAACAGACCUCAGGCCCGAAGCGUGGCGGCACCUGCCGCCGGUGGUAAAAAAGAUCGGAAGAGCACACGUCU [G9C U10G U11A C12G] belongs 1.27; to GGGUCGUUCGAUCAUAAUCGCGUGGAUAUGGCACGCAAGUUUCUACCGGGCACCGUAAAUGUCCGACUGGAGCCGUUCGGGCGGCUAUAAACAGACCUCAGGCCCGAAGCGUGGCGGCACCUGCCGCCGGUGGUAAAAAAGAUCGGAAGAGCACACGUCU [G9C U10G U11A C12U], 1.04; to GGGUCGUUCGCAGAUAAUCGCGUGGAUAUGGCACGCAAGUUUCUACCGGGCACCGUAAAUGUCCGACUGGAGCCGUUCGGGCGGCUAUAAACAGACCUCAGGCCCGAAGCGUGGCGGCACCUGCCGCCGGUGGUAAAAAAGAUCGGAAGAGCACACGUCU [G9C U10G U11C C12A C13G], 1.15.

(Values after the RNAGym collection of RNA variant scans (doi:10.1021/acssynbio.7b00057).)
